We go through 72 molecules from US20250011363A1, “OPTIMIZED SHORTENED PEPTIDE THAT BINDS TO ACETYLCHOLINE RECEPTOR, AND USE THEREOF” (SKINMED CO., LTD., priority 2021, published 2025).

Assay [1] addresses acetylcholine receptor. As to the kind of experiment: SPR, receptor on CM5 chip, peptide 10 µM. Background: SPR reads the build-up and loss of mass on a sensor chip optically.
Assay [2] addresses acetylcholine receptor. As to the kind of experiment: SPR, AchR immobilised on chip, peptide at 10 uM.

Molecule KKLLYR [6mer-1-70] gave a Binding affinity (RU) in the assay with acetylcholine receptor [1] of 139 RU.

In the assay with acetylcholine receptor [2], KLVRR [5mer-570] yielded a Binding affinity (RU) of 56 RU. On the same count and under the same terms, the same measure for RVITR [5mer-587]: 66 RU; for KGVLR [5mer-581]: 65 RU. The molecule KRWFYK [6mer-1-71] had a Binding affinity (RU) with acetylcholine receptor [1] of 121 RU. Take KGRRR [5mer-586]: in the assay with acetylcholine receptor [2], the Binding affinity (RU) was determined as 78 RU. The same measure, in the same setting: the same measure for RSVSK [5mer-585]: 74 RU. Same read-out and setting: the same measure for RSLYK [5mer-579]: 53 RU; for RSLRK [5mer-297]: 81 RU. KGFYR [5mer-575] displayed a Binding affinity (RU) in the assay with acetylcholine receptor [2] of 69 RU. Same read-out and setting: the same measure for RSIYR [5mer-573]: 84 RU; for KVYTR [5mer-275]: 64 RU; for RQVRK [5mer-274]: 62 RU.

For the molecule KGLCR [5mer-589], the Binding affinity (RU) with acetylcholine receptor [2] stood at 58 RU. KSIYR [5mer-298] returned a Binding affinity (RU) with acetylcholine receptor [2] of 75 RU. Same read-out and setting: the same measure for RQQRK [5mer-569]: 79 RU; for KGFTR [5mer-574]: 59 RU. Same read-out and setting: the same measure for KQYLK [5mer-593]: 77 RU; for RRYCK [5mer-567]: 63 RU.

The molecule KKQLRR [6mer-1-77] had a Binding affinity (RU) in the assay with acetylcholine receptor [1] of 149 RU. With KKVRLR [6mer-1-74], the Binding affinity (RU) with acetylcholine receptor [1] was 142 RU. In turn, RGYYR [5mer-290] displayed a Binding affinity (RU) with acetylcholine receptor [2] of 57 RU. RRQYR [5mer-289]: the Binding affinity (RU) with acetylcholine receptor [2] is 87 RU. On the same count and under the same terms, the same measure for KQYTK [5mer-590]: 81 RU. Turning to KLRTK [5mer-572], in the assay with acetylcholine receptor [2], the Binding affinity (RU) was 58 RU. Consider KLILK [5mer-288], for which the Binding affinity (RU) with acetylcholine receptor [2] was found to be 73 RU.

KSVLR [5mer-578] had a Binding affinity (RU) with acetylcholine receptor [2] of 65 RU. KWILK [5mer-280] registered a Binding affinity (RU) with acetylcholine receptor [2] of 53 RU. Same read-out and setting: the same measure for KRYCK [5mer-268]: 54 RU. Same read-out and setting: the same measure for KGYQR [5mer-272]: 83 RU. Still for that read-out and setting: the same measure for RGICK [5mer-582]: 82 RU. RSFTR [5mer-588]: in the assay with acetylcholine receptor [2], the Binding affinity (RU) was found to be 60 RU.

For RRQYQK [6mer-1-75], in the assay with acetylcholine receptor [1], the Binding affinity (RU) was 139 RU.

KQYYK [5mer-294] displayed a Binding affinity (RU) with acetylcholine receptor [2] of 50 RU. Still for that read-out and setting: the same measure for KQITR [5mer-568]: 64 RU; for RWFQK [5mer-286]: 71 RU; for RWLCR [5mer-592]: 56 RU. In the case of KKQQQR [6mer-1-73], the Binding affinity (RU) with acetylcholine receptor [1] was determined as 142 RU. KWQQR [5mer-595] returned a Binding affinity (RU) with acetylcholine receptor [2] of 58 RU.

The molecule RRLQLK [6mer-1-76] came in with a Binding affinity (RU) with acetylcholine receptor [1] of 126 RU. Consider RWQRR [5mer-278], for which the Binding affinity (RU) in the assay with acetylcholine receptor [2] was 66 RU. On the same count and under the same terms, the same measure for KLVSR [5mer-597]: 68 RU; for RVRSK [5mer-598]: 84 RU; for KLVCK [5mer-292]: 59 RU. The molecule RRLTK [5mer-571] had a Binding affinity (RU) in the assay with acetylcholine receptor [2] of 51 RU. Same read-out and setting: the same measure for RGRCR [5mer-295]: 52 RU. On the same count and under the same terms, the same measure for RGRYR [5mer-271]: 68 RU; for RVVTK [5mer-279]: 56 RU.

In turn, RGFLK [5mer-281] had a Binding affinity (RU) with acetylcholine receptor [2] of 58 RU. Same read-out and setting: the same measure for RVLTR [5mer-282]: 77 RU. On the same count and under the same terms, the same measure for RSLRR [5mer-276]: 70 RU. Same read-out and setting: the same measure for KWVYK [5mer-283]: 51 RU. For KQIQK [5mer-584], the Binding affinity (RU) with acetylcholine receptor [2] turned out to be 76 RU. The molecule KQVQR [5mer-284] displayed a Binding affinity (RU) with acetylcholine receptor [2] of 52 RU. RQYYR [5mer-293] yielded a Binding affinity (RU) with acetylcholine receptor [2] of 83 RU. Consider RKVQLK [6mer-1-72], for which the Binding affinity (RU) in the assay with acetylcholine receptor [1] worked out at 139 RU. RVYTK [5mer-591] had a Binding affinity (RU) in the assay with acetylcholine receptor [2] of 61 RU. The same measure, in the same setting: the same measure for RSQQR [5mer-270]: 52 RU; for RLFRK [5mer-576]: 62 RU; for RGYTR [5mer-580]: 70 RU. On the same count and under the same terms, the same measure for KWISK [5mer-296]: 55 RU. Take KLVTK [5mer-577]: the Binding affinity (RU) in the assay with acetylcholine receptor [2] was 77 RU. RKVRRR [6mer-1-69] had a Binding affinity (RU) in the assay with acetylcholine receptor [1] of 142 RU.

KQYSR [5mer-594] came in with a Binding affinity (RU) with acetylcholine receptor [2] of 50 RU. Still for that read-out and setting: the same measure for KLQQR [5mer-596]: 56 RU; for RVFTR [5mer-277]: 82 RU; for KGQLK [5mer-285]: 75 RU. KVVYR [5mer-583]: the Binding affinity (RU) with acetylcholine receptor [2] worked out at 75 RU. The same measure, in the same setting: the same measure for RLFLR [5mer-269]: 85 RU. Still for that read-out and setting: the same measure for RVQSK [5mer-273]: 82 RU; for RWFTR [5mer-291]: 72 RU. On to KRYRR [5mer-287], for which the Binding affinity (RU) in the assay with acetylcholine receptor [2] came to 68 RU.
